Residue numbers refer to the chain shown, from its start.
T1: PET28-NgAP2a (Nannochloropsis gaditana, UniProt W7TGT1 140-326)
T1 sequence: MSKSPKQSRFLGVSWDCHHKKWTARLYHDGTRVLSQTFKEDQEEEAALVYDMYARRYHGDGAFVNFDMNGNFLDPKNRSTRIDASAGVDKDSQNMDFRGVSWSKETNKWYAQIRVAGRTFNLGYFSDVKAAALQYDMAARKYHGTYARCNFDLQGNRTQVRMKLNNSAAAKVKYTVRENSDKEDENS

B1: M5 probe (EMSA5) (dsDNA)
DNA 1: CTCATTCCCATACCGCAAGTACCTGACCCTGTA
DNA 2: TACAGGGTCAGGTACTTGCGGTATGGGAATGAG
B2: mutant M5 competitor (mu_EMSA5) (dsDNA)
DNA 1: B1 DNA 1 with C13A, C14A, G15A
DNA 2: B1 DNA 2 with C19T, G20T, G21T
B3: M3 probe (EMSA3) (dsDNA)
DNA 1: GGCGTTGCCACTTGGGCAAAGAAAAGCTGG
DNA 2: CCAGCTTTTCTTTGCCCAAGTGGCAACGCC
B4: unlabeled M5 competitor (dsDNA)
DNA 1: B1 DNA 1
DNA 2: B1 DNA 2

What was measured:
PET28-NgAP2a [1] = molecular target: T1, PET28-NgAP2a; experiment: EMSA; Beyotime Chemiluminescent EMSA Kit GS009 per manual; buffer, salt, pH and temperature not stated; settings: protein: recombinant; label: 3' biotin; blunt
PET28-NgAP2a [2] = molecular target: T1, PET28-NgAP2a; experiment: competition; 100x unlabeled vs biotin M5 probe; Beyotime Chemiluminescent EMSA Kit GS009 per manual; buffer, salt, pH and temperature not stated; settings: protein: recombinant; label: none (unlabeled); blunt

Binder | binding result (PET28-NgAP2a [1]) | binding result (PET28-NgAP2a [2])
B1 | binds | 
B2 |  | no binding
B3 | no binding | 
B4 |  | binds

— publication PMC11477109, “NgAP2a Targets KCS Gene to Promote Lipid Accumulation in Nannochloropsis gaditana”
